This data set deals with T1, VDRm-NT (vitamin D receptor, flexible loop deleted, no His-tag) (rat, UniProt P13053 1-423, del165-211).
T1 sequence: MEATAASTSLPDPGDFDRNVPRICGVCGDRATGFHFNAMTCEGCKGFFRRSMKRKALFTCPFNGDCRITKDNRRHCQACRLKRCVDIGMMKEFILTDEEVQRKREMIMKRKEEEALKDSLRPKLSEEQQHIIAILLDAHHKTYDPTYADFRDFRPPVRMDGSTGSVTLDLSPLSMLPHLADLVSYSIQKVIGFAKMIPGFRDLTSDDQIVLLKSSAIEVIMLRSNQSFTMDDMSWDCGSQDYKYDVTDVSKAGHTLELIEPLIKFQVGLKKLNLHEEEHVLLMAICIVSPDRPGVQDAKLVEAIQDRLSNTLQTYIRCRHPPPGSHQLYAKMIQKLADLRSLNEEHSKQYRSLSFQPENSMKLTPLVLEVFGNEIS
Put plainly: EMSA.

B1: VDRE duplex (dsDNA)
DNA 1: CACGGTTCACGAGGTTCACAC
DNA 2: GTGTGAACCTCGTGAACCGTG
For the molecule B1, the binding result is recorded as “binds”.
